How the values were obtained:
[1] = tested on: DIO mice; assay: Therapeutic ISM1 administration for five days in DIO mice; assay type: in vivo, mouse; conditions: 5 mg/kg for five days
Procedure: Therapeutic ISM1 recombinant protein administration in vivo. All pharmacologic studies using recombinant ISM1 protein were performed in mice with established diet-induced obesity or non-alcoholic fatty liver disease (NAFLD). For all experiments, male C57BL/6J mice purchased from Jax were fed either a high-fat diet (#D12492, Research Diets) or a NAFLD diet (#D09100310, Research Diets) prior to ISM1 protein injections. In all experiments, mice were mock injected with saline for three days prior to protein or drug injections to prevent stress-induced weight loss. Mice were I.P. injected with vehicle (saline) or indicated doses of ISM1 protein diluted in saline. For the 14-day experiments in NAFLD mice, 7-weeks old mice were fed with NAFLD diet for 3 weeks and then mock injected with saline for 3 days prior to protein injections. The induction of lipid accumulation with NAFLD diet was verified by the significant increase in hepatic lipid levels compared with mice on chow diet at the same time point. […] At the end of the experiments, mice and tissue weights were recorded. […]
Glucose tolerance and insulin tolerance tests. […] Blood glucose levels were measured at 0, 15, 30, 45, 60, 90 and 120 mins. […] Blood glucose levels were measured at 0, 15, 30, 45, 60, 90 and 120 mins.

[2] = tested on: srebp1c; assay: Lipogenic gene and SREBP-1c protein expression in primary adipocytes; assay type: cell-based, mouse
Procedure: Gene expression analysis. Total RNA from cultured cells or tissues was isolated using TRIzol (Thermo Fischer Scientific) and Rneasy mini kits (QIAGEN). RNA was reverse transcribed using the ABI high capacity cDNA synthesis kit. For qRT-PCR analysis, cDNA, primers and SYBR-green fluorescent dye (ABI) were used. Relative mRNA expression was determined by normalization with Cyclophilin levels using the ΔΔCt method.
(§1) Western blots and molecular analyses. For western blotting, homogenized tissues or whole-cell lysates, samples were lysed in RIPA buffer containing protease inhibitor cocktail (Roche) and phosphatase inhibitor cocktail (Roche). Cell lysates were centrifuged at 14,000×g for 15 min and supernatants were prepared in 4×LDS Sample Buffer (Invitrogen) and separated by SDS-PAGE and transferred to Immobilon 0.45 μm membranes (Millipore). For Western blotting of plasma samples, 1 μl of plasma was prepared in 2× sample buffer (Invitrogen) with reducing agent, boiled, and analyzed using Western blot against indicated antibody. Protein kinase array (R&D systems ARY003B) was performed according to the manufacturers' description. All antibodies used in this paper are described in STAR methods.

[3] = tested on: pAKTS473; assay: In vivo pAKT S473 signaling in tissues after I.V. injection in DIO mice; design: species or system mouse
Procedure: as §1

B1: ISM1: recombinant mouse ISM1 protein with a C-terminal myc-his tag generated in mammalian HEK 293 Expi cells (protein, UniProt A2ATD1 30-454, looked up)
Isthmin-1: SDRQDAAAGNNNLNLESDSTSETSFPLSKEAPEEHQVVHQPFPRQRFPPETGHPSLQRDGPRSFLLDLPNFPDLSKADINGQNPNIQVTIEVVDGPDSEAEKDQHPENKPSWSLPAPDWRAWWQRSLSLARTNSGDQDDKYDSTSDDSNFLSVPRGWDRPAPGHRTFETKEQPEYDSTDGEGDWSLWSVCSVTCGNGNQKRTRSCGYACIATESRTCDRPNCPGIEDTFRTAATEVSLLAGSEEFNATKLFEVDMDSCERWMSCKSEFLKKYMHKVINDLPSCPCSYPTEVAYSTADIFDRIKRKDFRWKDASGPKEKLEIYKPTARYCIRSMLSLESTTLAAQHCCYGDNMQLITRGKGAGTPNLISTEFSAELHYKVDVLPWIICKGDWSRYNEARPPNNGQKCTESPSDEDYIKQFQEAREY
modifications: C-terminal myc-His tag
notes: recombinant mouse ISM1 protein with a C-terminal myc-his tag generated in mammalian HEK 293 Expi cells
insulin tolerance (ITT) [1]: modest improvement | ad lib glucose levels ([1]; vs vehicle): no difference | cleaved SREBP-1c protein levels ([2]; insulin-stimulated conditions): potently reduces the cleaved SREBP-1c protein levels | srebp1c, acc, fas and ChREBPβ gene expression ([2]; insulin-stimulated conditions): suppressing srebp1c and the lipogenesis target genes acc, fas, and ChREBPβ | srebp1c expression under basal conditions ([2]; primary adipocytes): no induction | pAKTS473 signaling in BAT and liver ([3]; 10 mg/kg I.V., 10 min time point): transient inductions | pAKTS473 signaling in iWAT and skeletal muscle ([3]; 10 mg/kg I.V., DIO mice): activates pAKTS473 signaling at 30 and 60 min | dose inducing the highest pAKTS473 response ([3]; doses ranging from 0.1 mg/kg to 10 mg/kg, iWAT): 5 mg/kg

From patent US20240342244A1, “Isthmin Protein Therapeutics for the Treatment of Non-Alcoholic Fatty Liver Disease” (The Board of Trustees of the Leland Stanford Junior …, priority 2021, published 2024)
